Tests used:
[1] = molecular target: BG505 SOSIP.v4.1 Env trimer produced in STT3A-KO HEK293T cells (HIV-1 strain BG505 (clade A)); assay: native gel or EMSA
[2] = molecular target: BG505 SOSIP.v4.1 Env trimer produced in STT3A-KO HEK293T cells (HIV-1 strain BG505 (clade A)); assay: SEC; SEC of Ni-NTA-purified Env on a Superdex 200 10/300 GL column; trimer, dimer and monomer peaks
[3] = molecular target: BG505 SOSIP.v4.1 Env trimer produced in wild-type (WT) HEK293T cells (HIV-1 strain BG505 (clade A)); assay: native gel or EMSA
[4] = molecular target: BG505 SOSIP.v4.1 Env trimer produced in wild-type (WT) HEK293T cells (HIV-1 strain BG505 (clade A)); assay: SEC; SEC of Ni-NTA-purified Env on a Superdex 200 10/300 GL column; trimer, dimer and monomer peaks
[5] = molecular target: BG505 SOSIP.v4.1 Env trimer produced in STT3B-KO HEK293T cells (HIV-1 strain BG505 (clade A)); assay: native gel or EMSA
[6] = molecular target: BG505 SOSIP.v4.1 Env trimer produced in STT3B-KO HEK293T cells (HIV-1 strain BG505 (clade A)); assay: SEC; SEC of Ni-NTA-purified Env on a Superdex 200 10/300 GL column; trimer, dimer and monomer peaks

BG505 SOSIP.v4.1 Env trimer produced in STT3A-KO HEK293T cells (complex)
stoichiometry N [1]: 3 | stoichiometry N [2]: 3

BG505 SOSIP.v4.1 Env trimer produced in wild-type (WT) HEK293T cells (complex)
stoichiometry N [3]: 3 | stoichiometry N [4]: 3

BG505 SOSIP.v4.1 Env trimer produced in STT3B-KO HEK293T cells (complex)
stoichiometry N [5]: 3 | stoichiometry N [6]: 3
